The source of these data is patent publication US6972324 (Boehringer Ingelheim, dated 2005).

Positions count from the first letter of the chain named.

Assay [1] deals with glutathione-S-transferase fusion protein containing domains v3-v10 of human CD44 (human) (UniProt P16070). Kind of assay: SPR (BIAcore 2000), GST/CD44v3-v10 immobilized on CM5 chip. (In general: Surface plasmon resonance follows binding to a sensor surface in real time, without labels.)
Assay [2] deals with CD44v6 on human tumour cells (human) (UniProt P16070). Put plainly: immunoreactivity assay, 186Re-MAG3-labelled MAb on fixed UM-SCC-11B cells.
Assay [3] deals with glutathione-S-transferase fusion protein containing domains v3-v10 of human CD44 (human) (UniProt P16070). Put plainly: SPR (BIAcore 2000), GST/CD44v3-v10 immobilized on CM5 chip, MAb injected at 8-67 nM.
Assay [4] addresses CD44v6 on human tumour cells (human) (UniProt P16070). Put plainly: immunoreactivity assay, 125I-labelled IgG on glutaraldehyde-fixed UM-SCC-11B cells, experiment 2.
The target is the same in assay [5]. Put plainly: competitive cell ELISA on fixed A431 cells against mMAb BIWA 1; IC50 relative to BIWA 2. For orientation: ELISA stands for enzyme-linked immunosorbent assay.
Assay [6] has the same target. Put plainly: immunoreactivity assay, 125I-labelled IgG on fixed UM-SCC-11B cells, linear extrapolation to infinite antigen excess, experiment 2.
Assay [7] shares this target. Put plainly: immunoreactivity assay, 131I-labelled IgG on glutaraldehyde-fixed UM-SCC-11B cells, experiment 1.
For assay [8] the target is unchanged. Put plainly: immunoreactivity assay, 131I-labelled IgG on fixed UM-SCC-11B cells, linear extrapolation to infinite antigen excess, experiment 1.
The target in assay [9] is T1, glutathione-S-transferase fusion protein containing domains v3-v10 of human CD44 (human, UniProt P16070 267-604).
T1 construct: also called GST/CD44v3-v10; recombinant antigen; not shown: glutathione-S-transferase (GST) fusion partner
T1 sequence (looked up): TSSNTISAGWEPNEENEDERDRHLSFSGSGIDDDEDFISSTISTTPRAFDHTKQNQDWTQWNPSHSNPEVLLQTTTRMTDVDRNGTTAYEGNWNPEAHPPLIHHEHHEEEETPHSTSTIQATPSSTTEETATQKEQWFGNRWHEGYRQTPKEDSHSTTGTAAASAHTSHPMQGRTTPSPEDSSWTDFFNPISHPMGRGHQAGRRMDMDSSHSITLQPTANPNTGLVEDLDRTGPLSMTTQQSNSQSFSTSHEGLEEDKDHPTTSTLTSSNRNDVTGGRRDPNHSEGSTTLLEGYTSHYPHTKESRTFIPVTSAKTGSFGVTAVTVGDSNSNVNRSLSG
Put plainly: ratio of affinities (SPR on GST/CD44v3-v10, Table 1).

Assay [10] addresses T1, glutathione-S-transferase fusion …. Put plainly: SPR (BIAcore 2000), GST/CD44v3-v10 immobilized on CM5 chip. Here is the method: (§1) Evaluation of antibody affinity. Measurement of kinetic and affinity constants using recombinant antigen was performed on a BIAcore 2000 system (BIAcore AB, Uppsala, Sweden). A glutathione-S-transferase fusion protein containing domains v3–v10 of human CD44 (GST/CD44v3–v10; 20 μg/ml) was immobilized on a CM5 sensor chip by the amine coupling method according to the manufacturer's instructions, using 10 mM sodium acetate pH 5.0 as coupling buffer. 35 μl of MAb at various concentrations (8–67 nM) in HBS (10 mM HEPES, pH 7.4, 150 mM NaCl, 3.4 mM EDTA, 0.05% BLAcore surfactant P20) were injected over the antigen-coated surface at a flow rate of 5 μL/min. Dissociation of the MAb was assessed for 5 minutes in buffer flow (HBS). Between two analyses, the surface of the chip was regenerated with a single pulse of 15 μl 30 mM HCl. Analysis of the data and calculation of the kinetic constants were performed with BIAcore's BIAevaluation software, version 2.1. Association rates (k_a), dissociation rates (k_d), and dissociation constants (K_d) were assessed for all antibodies.
(§2) In vitro binding characteristics of the CD44v6specific MAbs. The binding affinities of the five MAbs were analyzed using recombinant antigen as well as human tumor cell lines. Kinetic and affinity constants were evaluated by surface plasmon resonance using GST/CD44v3–v10 as immobilized antigen.

The target is the same in assay [11]. Put plainly: SPR (BIAcore 2000), GST/CD44v3-v10 immobilized on CM5 chip, MAb injected at 8-67 nM. The method, then: as §1, §2
The target in assay [12] is CD44v6 on human tumour cells (human) (UniProt P16070). Put plainly: immunoreactivity assay, 131I-labelled IgG on glutaraldehyde-fixed UM-SCC-11B cells, experiment 2.
Assay [13] shares this target. Kind of assay: immunoreactivity assay, 131I-labelled IgG on glutaraldehyde-fixed UM-SCC-11B cells, experiment 3.
The target is the same in assay [14]. Kind of assay: immunoreactivity assay of clinical 99mTc-/186Re-MAG3-labelled BIWA 4 batches on fixed UM-SCC 11B cells.
For assay [15] the target is unchanged. Kind of assay: immunoreactivity assay, 131I-labelled IgG on fixed UM-SCC-11B cells, linear extrapolation to infinite antigen excess, experiment 2.
Assay [16] shares this target. Put plainly: immunoreactivity assay, 131I-labelled IgG on fixed UM-SCC-11B cells, linear extrapolation to infinite antigen excess, experiment 3.
Assay [17] has the same target. Put plainly: competitive cell ELISA on fixed A431 cells; inhibition of binding of mMAb BIWA 1, detected with peroxidase-conjugated anti-mouse Fc; unit taken from the concentration axis.
The target is the same in assay [18]. Kind of assay: immunoreactivity assay, 125I-labelled IgG on glutaraldehyde-fixed UM-SCC-11B cells, experiment 3.
The target is the same in assay [19]. Kind of assay: immunoreactivity assay, 125I-labelled IgG on fixed UM-SCC-11B cells, linear extrapolation to infinite antigen excess, experiment 3.

What is called Kd is a measure of binding affinity in units of concentration. High values mean lower affinity, low ones higher affinity. What is called koff is a measure of how fast the partners let go of each other. The low end stands for slow dissociation, the high end for fast dissociation. Usually kon stands for the rate constant with which the complex forms. In turn, cMAb BIWA 2 (antibody) returned a Kd relative to murine BIWA 1 in assay [1] of 0.7 fold. Also, the immunoreactive fraction in assay [2] came out at 75%. In assay [3], this molecule came in with an equilibrium dissociation constant (Kd) of 0.24 nM, a koff of 4.1e-05 s⁻¹ and a kon of 170000 M⁻¹ s⁻¹. The molecule further gave a Binding to 5 × 10^6 cells (%) in assay [4] of 80.5%. This molecule came in with a relative IC50 values in assay [5] of 1. For the same molecule, in assay [6], the Binding Extrapolated (%) (immunoreactive fraction) is 79.9%.
Turning to mMAb U36 (antibody), the Kd relative to murine BIWA 1 in [1] came to 35 fold. In [2], this molecule yielded an immunoreactive fraction of 75%. In assay [3], this molecule yielded a Kd of 11 nM, an off-rate (koff) of 0.00017 s⁻¹ and a kon of 15000 M⁻¹ s⁻¹. The same molecule yielded a Binding to 5 × 10^6 cells (%) in assay [7] of 59.7%. In addition, the Binding Extrapolated (%) (immunoreactive fraction) in assay [8] is 87.4%.

B1: hMAb BIWA 4 (antibody, human IgG1, kappa, V domains shown)
VH: EVQLVESGGGLVKPGGSLRLSCAASGFTFSSYDMSWVRQAPGKGLEWVSTISSGGSYTYYLDSIKGRFTISRDNAKNSLYLQMNSLRAEDTAVYYCARQGLDYWGRGTLVTVSS
VL: EIVLTQSPATLSLSPGERATLSCSASSSINYIYWYQQKPGQAPRLLIYLTSNLASGVPARFSGSGSGTDFTLTISSLEPEDFAVYYCLQWSSNPLTFGGGTKVEIKR
notes: CDR-grafted humanised version of BIWA 1 without murine framework residues; human IgG1/kappa; in the clinical study as 99mTc- or 186Re-MAG3 conjugate; also called Humanized BIWA 4; bivatuzumab
In general, IC50 refers to the point on the concentration scale where inhibition reaches its midpoint. A higher IC50 goes with weaker potency in that assay. Turning to B1, in [9], the “fold lower affinity than cMAb BIWA 2” value was 14 fold and the “fold lower affinity than hMAb BIWA 8” value was 4 fold. The “Kd relative to murine BIWA 1” value in [10] is 10.5 fold. In [2], this molecule gave an immunoreactive fraction of 75%. In assay [11], this molecule had a Kd of 3.4 nM, a koff of 0.00022 s⁻¹ and an association rate constant (kon) of 65000 M⁻¹ s⁻¹. The Binding to 5 × 10^6 cells (%) in assay [12] turned out to be 77.4%. This molecule also registered a Binding to 5 × 10^6 cells (%) in assay [13] of 77.3%. The molecule also displayed a relative IC50 values in assay [5] of 44. Moreover, in [14], the immunoreactive fraction came to 80%. Also, the Binding Extrapolated (%) (immunoreactive fraction) in assay [15] is 82.3%. For the same molecule, the Binding Extrapolated (%) (immunoreactive fraction) in assay [16] is 74.5%. In addition, the half-maximal inhibitory concentration (IC50) in assay [17] was found to be 8.01 µg/mL.

B2: hMAb BIWA 8 (antibody, human IgG1, kappa, V domains shown)
VH: B1 VH
VL: B1 VL with Y35L, L45I
notes: CDR-grafted humanised version of BIWA 1 with two murine residues in light chain framework 2; human IgG1/kappa; also called Humanized BIWA 8
As to B2, in assay [10], the “Kd relative to murine BIWA 1” value amounted to 2.6 fold. The molecule further gave an immunoreactive fraction in [2] of 75%. Besides, in [11], the Kd was 0.84 nM, the off-rate (koff) came out at 6.3e-05 s⁻¹ and the kon is 75000 M⁻¹ s⁻¹. For the same molecule, in assay [18], the Binding to 5 × 10^6 cells (%) is 91.8%. Further, the relative IC50 values in assay [5] turned out to be 2. Moreover, the Binding Extrapolated (%) (immunoreactive fraction) in assay [19] was 92.1%. The IC50 in [17] came to 0.335 µg/mL.
